Measured values from patent US20230250158A1.

B1: 22-E7 (antibody, V domains shown)
VH: QVQLVESGGGVVQPGTSLRLSCAASGFTFNNYPMFWVRQAPGKGLEWLALISYDGNHKVYADSVKGRFTISRDNAKNTLYLQMHSLRAEDTALYYCASDLSGAEDSWGQGTLVTVSS
VL: QSALTQPASVSGSPGQSITISCTGTSSDVGGYNYVSWYQQHPGKAPKLLIYEVSNRPSGVSNRFSGSKSGNTASLTISGLQAEDEADYYCSSYTSSSTWVFGGGTKLTVL
B2: 22-F7 (antibody, V domains shown)
VH: QVQLVESGGGVVQPGRSLRLSCAASGFSFTNYGMHWVRQAPGKGLEWVAVISYDGSIKYYEDSLKGRFTVSRDNSKKTLYLQMNSLRAEDTAVYYCTRERGTGIDYWGLGTLVTVSS
VL: QSALTQPASVSGYPGQSITLSCTGTKSDIGAYNYVSWYQQHPGKAPKLMVYDVSNRPSGLSNRFSGSKSDNTASLTISGLQAEDEAHYYCSSYTTSGTVVFGGGTKVTVL
B3: 2-A6 (antibody, V domains shown)
VH: QVTLRESGPALVKPTQTLTLTCTFSGFSLNTRGMSVSWIRQPPGKALEWLALIDWEDDKFYRTSLMTRLTISKDIFKNQVVLTMTNVDPVDTGTYYCARTYSVGVKYFGMDVWGQGTTVTVSS
VL: SSELTQDPAVSVALGQTVRITCQGDSLRNYYASWYRQEPGQAPILLIYGGNYRPSGIPDRFSGSSSGNTASLTITGAQAEDEADYYCNSRDSSGNHVVFGGGTKLTVL

Target: SARS-CoV-2 Spike trimer (recombinant, wild type) (SARS-CoV-2), P0DTC2
Assay: ELISA on plate-adsorbed recombinant Spike
Details: remark: other sources report otherwise

Row | Binder | EC50 (read off the curve) [µg/mL]
1 | B1 | 0.02
2 | B2 | 0.01
3 | B3 | 0.007
